The labels stand for the following.
B1: IL22-Fc fusion biotherapeutic (UTTR1147A) [modified: N-linked glycans with sialic acid; 8 N-linked glycosylation sites in the dimer (N21, N35, N64, N143 on each chain); N-linked glycans with sialic acid; 8 N-linked … (parent)
chain 1: APISSHCRLDKSNFQQPYITNRTFMLAKEASLADNNTDVRLIGEKLFHGVSMSERCYLMKQVLNFTLEEVLFPQSDRFQPYMQEVVPFLARLSNRLSTCHIEGDDLHIQRNVQKLKDTVKKLGESGEIKAIGELDLLFMSLRNACI
chain 2: HAPEDPSDLLQHVKFQSSNFENILTWDSGPEGTPDTVYSIEYKTYGERDWVAKKGCQRITRKSCNLTVETGNLTELYYARVTAVSAGGRSATKMTDRFSSLQHTTLKPPDVTCISKVRSIQMIVHPTPTPIRAGDGHRLTLEDIFHDLFYHLELQVNRTYQMHLGGKQREYEFFGLTPDTEFLGTIMICVPTWAKESAPYMCRVKTLPDRTWT

Variants of B1 are the subject of the test. As to the kind of experiment: relative potency assay (method not named for this panel; measured in duplicate). The settings on record: with IL-22 RA1 extracellular domain (ECD).
Take chain 1 APISSHCRLDKSNFQQPYITNRTFMLAKEASLADNNTDVRLIGEKLFHGVSMSERCYLMKQVLNFTLEEVLFPQSDRFQPYMQEVVPFLARLSNRLSTCHIEGDDLHIQRNVQKLKDTVKKLGESGEIKAIGELDLLFMSLRQACI [chain 1 N143Q]: the ratio to parent is 0.83.

As for chain 1 APISSHCRLDKSNFQQPYITNRTFMLAKEASLADNNTDVRLIGEKLFHGVSMSERCYLMKQVLQFTLEEVLFPQSDRFQPYMQEVVPFLARLSNRLSTCHIEGDDLHIQRNVQKLKDTVKKLGESGEIKAIGELDLLFMSLRNACI [chain 1 N64Q], the ratio to parent came to 0.64.

As to chain 1 APISSHCRLDKSNFQQPYITNRTFMLAKEASLADQNTDVRLIGEKLFHGVSMSERCYLMKQVLNFTLEEVLFPQSDRFQPYMQEVVPFLARLSNRLSTCHIEGDDLHIQRNVQKLKDTVKKLGESGEIKAIGELDLLFMSLRNACI [chain 1 N35Q], the ratio to parent amounted to 1.54.

The values above are taken from publication PMC11021452, “Exposing the molecular heterogeneity of glycosylated biotherapeutics” (Nature Communications, 2024).
